In patent US20210380679A1 (INHIBRX BIOSCIENCES, published 2021):

T1: human DLL3 (Delta-like ligand 3) (human, UniProt Q9NYJ7 27-618)
T1 construct: endogenous on SHP-77 cells; also called cell-surface DLL3
T1 sequence: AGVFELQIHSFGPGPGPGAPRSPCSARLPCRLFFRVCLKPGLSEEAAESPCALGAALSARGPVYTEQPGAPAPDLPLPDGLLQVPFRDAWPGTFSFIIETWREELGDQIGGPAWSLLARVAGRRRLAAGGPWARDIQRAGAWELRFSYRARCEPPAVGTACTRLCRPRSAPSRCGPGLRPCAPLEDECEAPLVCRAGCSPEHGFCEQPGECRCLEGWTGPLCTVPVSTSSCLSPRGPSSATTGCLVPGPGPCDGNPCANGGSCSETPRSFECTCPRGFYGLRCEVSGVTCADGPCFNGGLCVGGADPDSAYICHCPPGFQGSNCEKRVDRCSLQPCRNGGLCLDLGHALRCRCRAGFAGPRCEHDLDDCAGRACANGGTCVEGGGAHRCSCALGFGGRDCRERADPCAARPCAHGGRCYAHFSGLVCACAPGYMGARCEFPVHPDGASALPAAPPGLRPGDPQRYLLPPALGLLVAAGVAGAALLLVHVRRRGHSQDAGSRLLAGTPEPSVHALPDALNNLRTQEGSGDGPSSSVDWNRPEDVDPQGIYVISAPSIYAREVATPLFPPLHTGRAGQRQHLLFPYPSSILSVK


Assays:
[1] = molecular target: T2, CD3 on the surface of T cells (human, UniProt P07766 23-207); assay: flow cytometry, primary human T cells
T2 construct: whole, on cells; multi-chain complex; also called CD3 epsilon
T2 sequence (P07766 23-207): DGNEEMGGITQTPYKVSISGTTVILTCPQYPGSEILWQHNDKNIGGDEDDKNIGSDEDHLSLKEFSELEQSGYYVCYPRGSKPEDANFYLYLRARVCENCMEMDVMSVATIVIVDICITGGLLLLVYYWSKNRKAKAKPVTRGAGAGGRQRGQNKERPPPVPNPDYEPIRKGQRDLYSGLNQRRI
Experimental: (§1) Binding of exemplary DLL3-targeting constrained CD3 engaging constructs of the disclosure, referred to herein as cx4720, cx3715, cx4422, cx3708, cx4052, cx3985, cx4059, cx4087, cx4088, cx4895, cx3991, cx3711, cx4887, cx4896, cx4899, cx4406, cx3707, cx3710, cx4888 and cx4890, to CD3 on the surface of primary T cells was assessed via flow cytometry (SONY SA3800 spectral analyzer) using T-cell that were negatively enriched from PBMCs isolated from healthy human donor leukopaks. Representative DLL3-targeting constrained CD3 engaging constructs were assessed for binding to T cells and DLL3 expressing cells (SHP-77). Bound cx4720, cx3715, cx4422, cx3708, cx4052, cx3985, cx4059, cx4087, cx4088, cx4895, cx3991, cx3711, cx4887, cx4896, cx4899, cx4406, cx3707, cx3710, cx4888 and cx4890 was detected with fluorophore-conjugated secondary antibodies specific for the human Fc and binding was measured by flow cytometry. Cells incubated with secondary antibody only served as negative controls.
(§2) Table E4 summarizes the affinity of exemplary molecules for DLL3 or CD3, as determined from flow cytometry, in these studies.

[2] = molecular target: T1, human DLL3 (Delta-like ligand 3); assay: flow cytometry, SHP-77 cells
Experimental: as §1, §2

Kd [1]	Kd [2]	Binder
> 200 nM	0.062 nM	cx4890 (bispecific antibody) chain 1: EVQLVQSGGGLVQAGGSLRLSCAASGSILSINAMGWYRQPPGKQREMVAGFTGDGNTIYADSVKGRFTISRDNAKNTVYLQMNSLKPEDTAVYYCAADVQLFSRDYEFYWGQGTQVTVKPDKTHTCPPCPAPGGPSVFLFPPKPKDTLMISRTPEVTCVVVDVSHEDPEVKFNWYVDGVEVHNAKTKPREEQYNSTYRVVSVLTVLHQDWLNGKEYKCKVSNKALPAPIEKTISKAKGQPREPQVYTLPPCRDELTKNQVSLWCLVKGFYPSDIAVEWESNGQPENNYKTTPPVLDSDGSFFLYSKLTVDKSRWQQGNVFSCSVMHEALHNHYTQKSLSLSPTGGGGGSGGGGGSGGGGGSEVQLVESGGGLVQPGGSLRLSCAASGFTFNTYAMNWVRQAPGKCLEWVARIRSKYNNYATYYADSVKGRFTISRDDAKNTLYLQMSSLRAEDTAVYYCVRHGNFGNSYVSWFAYWGQGTLVTVKPEVQLQESGGGLVQAGGSLRLSCGPSEIITSDKSVGWWRQAPGKQRNLVAGISNVGSTNYAQSVKGRFTISRDNAKNTLFLQMNSLKPEDTAVYYCYARDFENEYWGRGTQVTVKP chain 2: DKTHTCPPCPAPGGPSVFLFPPKPKDTLMISRTPEVTCVVVDVSHEDPEVKFNWYVDGVEVHNAKTKPREEQYNSTYRVVSVLTVLHQDWLNGKEYKCKVSNKALPAPIEKTISKAKGQPREPQVCTLPPSRDELTKNQVSLSCAVKGFYPSDIAVEWESNGQPENNYKTTPPVLDSDGSFFLVSKLTVDKSRWQQGNVFSCSVMHEALHNRYTQKSLSLSPTGGGGGSGGGGGSGGGGGSQAVVTQEPSLTVSPGGTVTLTCGSSTGAVTTSNYANWVQQKPGQAFRGLIGGTNKRAPGVPARFSGSLLGGKAALTISGAQPEDEADYYCALWYSNHWVFGCGTKLEIK
> 200 nM	0.339 nM	cx4896 (bispecific antibody, also carries a 41BB sdAb) chain 1: EVQLVESGGGEVQPGGSLRLSCAASGSIFSINAMGWYRQAPGKQRELVAGFTGDTNTIYAESVKGRFTISRDNAKNTVYLQMSSLRAEDTAVYYCAADVQLFSRDYEFYWGQGTLVTVKPDKTHTCPPCPAPGGPSVFLFPPKPKDTLMISRTPEVTCVVVDVSHEDPEVKFNWYVDGVEVHNAKTKPREEQYNSTYRVVSVLTVLHQDWLNGKEYKCKVSNKALPAPIEKTISKAKGQPREPQVYTLPPCRDELTKNQVSLWCLVKGFYPSDIAVEWESNGQPENNYKTTPPVLDSDGSFFLYSKLTVDKSRWQQGNVFSCSVMHEALHNHYTQKSLSLSPTGGGGGSGGGGGSGGGGGSEVQLVESGGGLVQPGGSLRLSCAASGFTFNTYAMNWVRQAPGKCLEWVARIRSKYNNYATYYADSVKGRFTISRDDAKNTLYLQMSSLRAEDTAVYYCVRHGNFGNSYVSWFAYWGQGTLVTVKPEVQLVESGGGEVQPGGSLRLSCGPSEIITSDKSVGWWRQAPGKQRNLVAGISNVGSTNYAQSVKGRFTISRDNAKNTLYLQMSSLRAEDTAVYYCYARDFENEYWGQGTLVTVKP chain 2: DKTHTCPPCPAPGGPSVFLFPPKPKDTLMISRTPEVTCVVVDVSHEDPEVKFNWYVDGVEVHNAKTKPREEQYNSTYRVVSVLTVLHQDWLNGKEYKCKVSNKALPAPIEKTISKAKGQPREPQVCTLPPSRDELTKNQVSLSCAVKGFYPSDIAVEWESNGQPENNYKTTPPVLDSDGSFFLVSKLTVDKSRWQQGNVFSCSVMHEALHNRYTQKSLSLSPTGGGGGSGGGGGSGGGGGSQAVVTQEPSLTVSPGGTVTLTCGSSTGAVTTSNYANWVQQKPGQAFRGLIGGTNKRAPGVPARFSGSLLGGKAALTISGAQPEDEADYYCALWYSNHWVFGCGTKLEIKEVQLLESGGGEVQPGGSLRLSCAASGFSFSINAMGWYRQAPGKRREFVAAIESGRNTVYAESVKGRFTISRDNAKNTVYLQMSSLRAEDTAVYYCGLLKGNRVVSPSVAYWGQGTLVTVKP
> 200 nM	0.115 nM	cx4720 (bispecific antibody, also carries a 41BB sdAb) chain 1: EVQLVQSGGGLVQAGGSLRLSCAASGSILSINAMGWYRQPPGKQREMVAGFTGDGNTIYADSVKGRFTISRDNAKNTVYLQMNSLKPEDTAVYYCAADVQLFSRDYEFYWGQGTQVTVKPDKTHTCPPCPAPGGPSVFLFPPKPKDTLMISRTPEVTCVVVDVSHEDPEVKFNWYVDGVEVHNAKTKPREEQYNSTYRVVSVLTVLHQDWLNGKEYKCKVSNKALPAPIEKTISKAKGQPREPQVYTLPPCRDELTKNQVSLWCLVKGFYPSDIAVEWESNGQPENNYKTTPPVLDSDGSFFLYSKLTVDKSRWQQGNVFSCSVMHEALHNHYTQKSLSLSPTGGGGGSGGGGGSGGGGGSEVQLVESGGGLVQPGGSLRLSCAASGFTFNTYAMNWVRQAPGKCLEWVARIRSKYNNYATYYADSVKGRFTISRDDAKNTLYLQMSSLRAEDTAVYYCVRHGNFGNSYVSWFAYWGQGTLVTVKPEVQLQESGGGLVQAGGSLRLSCGPSEIITSDKSVGWWRQAPGKQRNLVAGISNVGSTNYAQSVKGRFTISRDNAKNTLFLQMNSLKPEDTAVYYCYARDFENEYWGRGTQVTVKP chain 2: DKTHTCPPCPAPGGPSVFLFPPKPKDTLMISRTPEVTCVVVDVSHEDPEVKFNWYVDGVEVHNAKTKPREEQYNSTYRVVSVLTVLHQDWLNGKEYKCKVSNKALPAPIEKTISKAKGQPREPQVCTLPPSRDELTKNQVSLSCAVKGFYPSDIAVEWESNGQPENNYKTTPPVLDSDGSFFLVSKLTVDKSRWQQGNVFSCSVMHEALHNRYTQKSLSLSPTGGGGGSGGGGGSGGGGGSQAVVTQEPSLTVSPGGTVTLTCGSSTGAVTTSNYANWVQQKPGQAFRGLIGGTNKRAPGVPARFSGSLLGGKAALTISGAQPEDEADYYCALWYSNHWVFGCGTKLEIKEVQLLESGGGEVQPGGSLRLSCAASGFSFSINAMGWYRQAPGKRREFVAAIESGRNTVYAESVKGRFTISRDNAKNTVYLQMSSLRAEDTAVYYCGLLKGNRVVSPSVAYWGQGTLVTVKP
> 200 nM	0.134 nM	cx4888 (bispecific antibody, also carries a 41BB sdAb) chain 1: EVQLVESGGGEVQPGGSLRLSCAASGSIFSINAMGWYRQAPGKQRELVAGFTGDTNTIYAESVKGRFTISRDNAKNTVYLQMSSLRAEDTAVYYCAADVQLFSRDYEFYWGQGTLVTVKPDKTHTCPPCPAPGGPSVFLFPPKPKDTLMISRTPEVTCVVVDVSHEDPEVKFNWYVDGVEVHNAKTKPREEQYNSTYRVVSVLTVLHQDWLNGKEYKCKVSNKALPAPIEKTISKAKGQPREPQVYTLPPCRDELTKNQVSLWCLVKGFYPSDIAVEWESNGQPENNYKTTPPVLDSDGSFFLYSKLTVDKSRWQQGNVFSCSVMHEALHNHYTQKSLSLSPTGGGGGSGGGGGSGGGGGSEVQLVESGGGLVQPGGSLRLSCAASGFTFNTYAMNWVRQAPGKCLEWVARIRSKYNNYATYYADSVKGRFTISRDDAKNTLYLQMSSLRAEDTAVYYCVRHGNFGNSYVSWFAYWGQGTLVTVKPEVQLVESGGGEVQPGGSLRLSCAASEIITSDKSVGWWRQAPGKQRNLVAGISNVGSTNYAQSVKGRFTISRDNAKNTLFLQMSSLRAEDTAVYYCYARDFENEYWGQGTLVTVKP chain 2: DKTHTCPPCPAPGGPSVFLFPPKPKDTLMISRTPEVTCVVVDVSHEDPEVKFNWYVDGVEVHNAKTKPREEQYNSTYRVVSVLTVLHQDWLNGKEYKCKVSNKALPAPIEKTISKAKGQPREPQVCTLPPSRDELTKNQVSLSCAVKGFYPSDIAVEWESNGQPENNYKTTPPVLDSDGSFFLVSKLTVDKSRWQQGNVFSCSVMHEALHNRYTQKSLSLSPTGGGGGSGGGGGSGGGGGSQAVVTQEPSLTVSPGGTVTLTCGSSTGAVTTSNYANWVQQKPGQAFRGLIGGTNKRAPGVPARFSGSLLGGKAALTISGAQPEDEADYYCALWYSNHWVFGCGTKLEIKEVQLLESGGGEVQPGGSLRLSCAASGFSFSINAMGWYRQAPGKRREFVAAIESGRNTVYAESVKGRFTISRDNAKNTVYLQMSSLRAEDTAVYYCGLLKGNRVVSPSVAYWGQGTLVTVKP
